Test [1] has as its target human GLP-1 receptor (GLP-1R) (human) (UniProt P43220).
The subject of the next test is shrews (Suncus murinus). The experiment in a line: Food intake and body weight. Format: in vivo. Particulars: shrew, albiglutide 0.5 and 5 mg/kg i.p.

UniProt P43220, sequence (P43220 24-463): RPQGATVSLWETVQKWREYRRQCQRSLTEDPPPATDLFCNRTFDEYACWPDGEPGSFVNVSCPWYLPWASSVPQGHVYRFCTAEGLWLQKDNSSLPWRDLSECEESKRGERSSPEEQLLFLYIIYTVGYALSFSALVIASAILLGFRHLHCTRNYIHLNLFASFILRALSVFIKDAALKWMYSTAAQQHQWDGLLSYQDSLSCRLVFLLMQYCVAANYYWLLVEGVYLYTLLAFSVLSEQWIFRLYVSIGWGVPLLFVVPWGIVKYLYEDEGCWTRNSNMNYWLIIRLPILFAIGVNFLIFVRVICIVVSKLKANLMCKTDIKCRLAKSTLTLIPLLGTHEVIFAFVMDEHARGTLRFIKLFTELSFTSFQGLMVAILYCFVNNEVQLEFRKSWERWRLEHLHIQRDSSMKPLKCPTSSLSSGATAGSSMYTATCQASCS

Take HC-Cbi-Ex4 (complex): the EC50 of agonism at the GLP-1R in test [1] was 3 nM. On to albiglutide, for which the “anorexia and body-weight loss” value in the test on shrews (Suncus murinus) was “did not cause anorexia and body-weight loss”.

The record behind these values is PMC7376604 (Cell reports, 2020).
